Read-outs that look alike come from different tables or passages of the source. Values belong to the binder of their own block, whether it stands above or below them.
Key:
[1] = target: T1, human CD200R1 isoform a on CHOK1 cells (CHOK1/hCD200R1a) (human, UniProt Q8TD46 25-348); assay: flow cytometry, CHOK1/hCD200R1a cells (FITC-Mean); table beside the curves
T1 construct: also called CHOK1/CD200R1a
T1 sequence: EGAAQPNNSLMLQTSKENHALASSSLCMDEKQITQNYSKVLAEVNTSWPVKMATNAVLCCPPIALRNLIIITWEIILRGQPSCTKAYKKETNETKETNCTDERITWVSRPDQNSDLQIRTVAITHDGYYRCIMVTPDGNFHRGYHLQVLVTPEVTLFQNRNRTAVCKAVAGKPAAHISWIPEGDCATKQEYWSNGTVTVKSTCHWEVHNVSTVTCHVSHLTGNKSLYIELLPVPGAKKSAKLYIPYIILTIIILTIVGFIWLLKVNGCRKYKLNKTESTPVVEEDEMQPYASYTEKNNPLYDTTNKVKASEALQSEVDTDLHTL
Experimental: (§1) This example is intended to investigate the in vitro binding activity of human anti-CD200R1 monoclonal antibodies to human/Cynomolgus macaques CD200R1a expressed on the surface of cells. The anti-CD200R1 antibodies were produced as described in Example 3.4 and the binding experiments at the cell level were performed using CHOK1/hCD200R1a and CHOK1-cynoCD200R1a.
(§2) Briefly, CHOK1/hCD200R1a cells and CHOK1-cynoCD200R1a cells were digested, and collected, and then were resuspended in PBS containing 2% BSA, respectively. The cell density was adjusted to 1×10⁶ cells/mL. The cells were seeded in a 96-well V-bottom plate (Corning, #3894) at 100 μL/well, followed by the addition of test antibodies and reference antibodies in a series diluted concentration, each at 100 μL/well. The cells were incubated away from light at 4° C. for 1 h. Thereafter, the cells in each well were rinsed twice with 100 μL of pre-cooled PBS containing 2% BSA, and centrifuged at 500 g at 4° C. for 5 min, and then the supernatant was discarded. 100 μL of fluorescent secondary antibody (Alexa Fluor 488-conjugated AffiniPure Goat Anti-Human IgG, Fcγ Fragment Specific, Jackson, #109-545-098, diluted in a 1:1000 ratio) was added in each well, and the plate was incubated away from light at 4° C. for 1 h. The cells in each well were rinsed twice with 100 μL of pre-cooled PBS containing 2% BSA, and centrifuged at 500 g at 4° C. for 5 min, and then the supernatant was discarded. Finally, the cells in each well were resuspended in 200 μL of pre-cooled PBS containing 2% BSA, and the fluorescence signal values were read using a BD CantoII flow cytometer.

[2] = target: T1, human CD200R1 isoform a on CHOK1 cells …; assay: flow cytometry blocking assay: antibody titrated against biotin-labelled human CD200 binding to CHOK1/hCD200R1a cells; head prints EC50 without unit, x axis Log [Ab] (nM), y axis Inhibition %
Experimental: (§3) In brief, CHOK1/hCD200R1a cells were digested and resuspended in 2% BSA in PBS. […] The cells were placed at 4° C. and incubated for 1 hour in the dark. […] 100 μL/well of pre-cooled PBS containing 2% BSA was added to rinse the cells twice, centrifugation was performed at 500 g, 4° C. for 5 minutes, and the supernatant was discarded. Fluorescent secondary antibody (PE Streptavidin, BD, Cat #: 554061, 1:200) was added at 100 μL/well, and incubation was performed at 4° C. for 30 minutes in the dark. The cells were washed twice with 200 μL/well of pre-cooled PBS, and were centrifuged at 500 g, 4° C. for 5 minutes, and the supernatant was discarded. Finally, 200 μL/well of pre-cooled PBS was used to resuspend the cells, and the fluorescence signal values were read using ACEA Novocyte 3000 flow cytometer. IC50 values were calculated.

[3] = target: T1, human CD200R1 isoform a on CHOK1 cells …; assay: flow cytometry blocking assay: biotin-labelled human CD200 binding to CHOK1/hCD200R1a cells; y axis Inhibition %
Experimental: as §3

[4] = target: T2, Cynomolgus macaques CD200R1 isoform a on CHOK1 cells (CHOK1/cynoCD200R1a) (Cynomolgus macaques); assay: flow cytometry, CHOK1/cynoCD200R1a cells (APC-A Mean); table beside the curves
T2 chain: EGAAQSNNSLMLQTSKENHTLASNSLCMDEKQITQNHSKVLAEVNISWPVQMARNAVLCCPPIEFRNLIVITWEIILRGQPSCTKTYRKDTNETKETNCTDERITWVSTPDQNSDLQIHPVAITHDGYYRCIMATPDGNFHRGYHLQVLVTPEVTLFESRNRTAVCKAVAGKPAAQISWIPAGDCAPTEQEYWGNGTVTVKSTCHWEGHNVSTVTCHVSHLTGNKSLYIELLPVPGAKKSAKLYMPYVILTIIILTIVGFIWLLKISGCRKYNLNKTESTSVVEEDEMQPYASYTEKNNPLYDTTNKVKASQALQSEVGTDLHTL

[5] = target: T1, human CD200R1 isoform a on CHOK1 cells …; assay: flow cytometry, CHOK1/hCD200R1a cells (FITC-Mean); table beside the curves, head without unit, x axis Log [Ab] (nM)
[6] = target: T3, CD200R1a on PathHunter Jurkat CD200R1a signaling cells (Eurofins DiscoverX, 93-1136C19) (human, UniProt Q8TD46 25-348); assay: cell-based or functional assay
T3 sequence: T1 sequence

[7] = target: T1, human CD200R1 isoform a on CHOK1 cells …; assay: flow cytometry, CHOK1/hCD200R1a cells (FITC-Mean); table beside the curves; remark: listed apart in the source
Experimental: as §1, §2

[8] = target: T1, human CD200R1 isoform a on CHOK1 cells …; assay: flow cytometry blocking assay: antibody titrated against biotin-labelled human CD200 binding to CHOK1/hCD200R1a cells; head prints EC50 without unit, x axis Log [Ab] (nM), y axis Inhibition %; remark: listed apart in the source
Experimental: as §3

[9] = target: T1, human CD200R1 isoform a on CHOK1 cells …; assay: flow cytometry, CHOK1/hCD200R1a cells (FITC-Mean); table beside the curves, head without unit, x axis Log [Ab] (nM); remark: listed apart in the source
[10] = target: T1, human CD200R1 isoform a on CHOK1 cells …; assay: flow cytometry blocking assay: biotin-labelled human CD200 binding to CHOK1/hCD200R1a cells; y axis Inhibition %; remark: listed apart in the source
Experimental: as §3

[11] = target: T2, Cynomolgus macaques CD200R1 isoform a …; assay: flow cytometry, CHOK1/cynoCD200R1a cells (APC-A Mean); table beside the curves
[12] = target: T3, CD200R1a on PathHunter Jurkat CD200R1a …; assay: cell-based or functional assay; remark: listed apart in the source
Mouse CD200R1-His = target: T4, Mouse CD200R1-His (mouse, UniProt Q9ES57 26-238, limits assumed); assay: BLI (Octet), antibody captured on anti-human Fc sensor
T4 sequence (looked up): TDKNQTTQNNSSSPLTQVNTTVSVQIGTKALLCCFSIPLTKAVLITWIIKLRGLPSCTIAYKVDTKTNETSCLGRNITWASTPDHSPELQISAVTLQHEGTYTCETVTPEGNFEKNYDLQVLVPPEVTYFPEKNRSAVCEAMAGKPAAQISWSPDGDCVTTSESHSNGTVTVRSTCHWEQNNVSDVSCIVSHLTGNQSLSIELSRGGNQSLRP
Experimental: To determine the binding affinities of the anti-CD200R1 antibodies to CD200R1a proteins of various species (mouse, human, Cynomolgus macaques), bio-layer interferometry (BLI) assays were carried out using an Octet® RED96e instrument. Antibodies were produced as described in Example 3.4 and diluted to 5 μg/mL using freshly prepared 1× kinetic buffer (10× kinetic buffer (Catalog #18-1105, ForteBio) was diluted with PBS(Catalog #E607016-0500, BBI Life Sciences)) and were captured on the surface of anti-human Fc (AHC) Octet biosensors (Catalog #18-5060, ForteBio) to reach capture levels between 0.9-1.2 nm. The biosensors having the captured anti-CD200R1 antibodies were then dipped in wells containing 2-fold serial dilutions of CD200R1a proteins to detect association signals, followed by dissociation steps in wells containing 1× kinetic buffer. The sensorgrams were recorded and the reference signals were subtracted before curve fitting using ForteBio Data Analysis 11.0 software. Association rates (kₒₙ) and dissociation rates (koff) were calculated using a simple one-to-one Langmuir binding model. The equilibrium dissociation constant (KD) was calculated as the ratio of koff/kₒₙ.

EC50 [4]: 8.74 nM
MFI (MAX) [4]: 51700
B1: PR007444 (antibody, human IgG1, kappa)
heavy: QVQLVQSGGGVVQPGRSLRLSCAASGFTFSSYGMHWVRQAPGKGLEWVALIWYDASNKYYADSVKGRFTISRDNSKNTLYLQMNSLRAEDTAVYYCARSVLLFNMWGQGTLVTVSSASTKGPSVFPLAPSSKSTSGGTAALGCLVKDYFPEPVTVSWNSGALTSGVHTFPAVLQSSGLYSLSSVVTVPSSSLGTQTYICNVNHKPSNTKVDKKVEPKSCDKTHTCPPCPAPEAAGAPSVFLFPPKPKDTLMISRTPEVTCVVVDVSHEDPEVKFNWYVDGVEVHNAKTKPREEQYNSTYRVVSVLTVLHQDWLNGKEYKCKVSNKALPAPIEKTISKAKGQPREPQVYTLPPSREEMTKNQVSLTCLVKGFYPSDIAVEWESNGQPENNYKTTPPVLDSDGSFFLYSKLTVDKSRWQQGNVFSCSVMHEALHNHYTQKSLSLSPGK
light: DIQMTQSPPSLSASVGDRVTITCRASQSISSYLNWFQQKAGKAPKLLISATSNLQSGVPSRFSGSGSGTDFTLTISSLQPEDLATYYCQQTYSSPYTFGQGTKVEIKRTVAAPSVFIFPPSDEQLKSGTASVVCLLNNFYPREAKVQWKVDNALQSGNSQESVTEQDSKDSTYSLSSTLTLSKADYEKHKVYACEVTHQGLSSPVTKSFNRGEC
notes: PTM variant of PR006895 (human IgG1)
MFI(Max) [1]: 10800
EC50 [2]: 0.0926 nM
Blocking(Max) [3]: 86.6%
EC50 [5]: 0.15 nM
IC50 of the inhibition of CD200-induced PathHunter Jurkat CD200R1a luminescence (CHOK1/hCD200 cells as CD200 source) [6]: 0.755 nM

EC50 [11]: 6.82 nM
MFI (MAX) [11]: 52200
B2: PR007974 (antibody, human IgG1, kappa, V domains shown)
VH: QVQLVESGGGVVQPGRSLRLSCAASGFTFSYYGFHWVRQAPGKGLEWLGLIWSDARHKDYADSVKGRFTISRDNSKNTLYLQMNSLRAEDTAVYYCARDRIVGEGFDYWGQGTLVTVSS
VL: DIVMTQSPLSLPVTPGEPASISCRSSQSLLHRSGYNYLDWYLQKPGQSPQLLIYLGSYRASGVPDRFSGSGSGTDFTLKISRVEAEDVGVYYCQQGIQTTYTFGQGTKLEIKR
notes: PTM variant of PR006839 (human IgG1)
MFI(Max) [7]: 18900
EC50 [8]: 0.24 nM
EC50 [9]: 0.277 nM
Blocking(Max) [10]: 98%

binding result (Mouse CD200R1-His): no binding
B3: PR005512 (antibody, human IgG1, kappa, L234A L235A, V domains shown)
VH: QVQLVESGGGVVQPGRSLRLSCVASGFTFSSYGMHWVRQAPGKGLEWVAIIWNDGSNRYYADSVKGRFTISRDNSKNTLYLQMNSLRAEDTAVYYCARDRIVGAGFDYWGQGTLVTVSS
VL: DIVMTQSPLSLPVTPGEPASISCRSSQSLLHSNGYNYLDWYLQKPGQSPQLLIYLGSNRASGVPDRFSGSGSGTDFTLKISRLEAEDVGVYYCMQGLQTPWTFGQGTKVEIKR
notes: also called PR60-012; PRE04512
IC50 of the inhibition of CD200-induced PathHunter Jurkat CD200R1a luminescence (CHOK1/hCD200 cells as CD200 source); head without unit, x axis Log [Ab] (nM) [12]: 2.63 nM
